Legend:
[1] = target: T1, SARS-CoV-2 spike receptor-binding domain (RBD), monomeric (SARS-CoV-2, UniProt P0DTC2); assay: BLI
[2] = target: T1, SARS-CoV-2 spike receptor-binding …; assay: BLI; remark: listed apart in the source

B1: MD62 (antibody, V domains shown)
VH: EVQLVQSGGGLIQPGGSLRLSCAASGVTVSSNYMTWVRQAPGKGLEWVSLIYSGGSTYYADSVKGRFTISRDNSKNTLYLQMNSLRAEDTAVYYCARDLQYYGMDVWGQGTMVTVSS
VL: AIRMTQSPSSVSASVGDRVTITCRASQDIGSWLGWYQQKPGKAPKLLIYAASSLAGGVPSRFSGSGSGTDFTLTISSLQPEDFATYYCQQANSFPLTFGGGTKLEIK
modifications: biotinylated when immobilised on the BLI sensor
B1 showed a Kd [1] of 4.8 nM and a koff [2] of 0.00063 s⁻¹.

B2: MD47 (antibody, V domains shown)
V domain 1: QMQLVQSGGGLVQPGGSLRLSCAASGFTFSSYAMSWVRQAPGKGLEWVSAISSGGSTYYADSVKGRFTISRDNSKNTLYLQMNSLRAEDTAVYYCAKDLVTAPSYEAFDIWGQGTMITVSS
V domain 2: NFMLTQPPSVSVAPGKTARITCGGNNIGSKSVHWYQQKPGQAPVLVIYYDSDRPSGIPERFSGSNSGNTATLTISRVEAGDEADYYCQVWDSSSHHHVVFGGGTKGTVL
modifications: biotinylated when immobilised on the BLI sensor
B2 showed a Kd [1] of 0.5 nM and a koff [2] of 9e-05 s⁻¹.

B3: MD63 (antibody, V domains shown)
VH: QVTLKESGGGVVQPGRSLRLSCAASGFTFSSYAMHWVRQAPGKGLEHVSAISSDGGITYFADSVKGRFTISRDNSRNTLFLQMSSLRVEDTAVYYCVKDQDSNSWYDAFDIWGRGTMVTVSS
VL: not shown
modifications: biotinylated when immobilised on the BLI sensor
With B3 the Kd [1] was 3.4 nM and the koff [2] was 0.00053 s⁻¹.

B4: MD29 (antibody, V domains shown)
VH: QMQLVQSGGGLVQPGGSLRLSCSASGFTFSTYVMNWVRQAPGKGPEHVSGISSDGGITYYADSVKGRFTISRDNSKNTLYLQMSSLRVEDTAVYYCVKDQDSSSWYDAFDIWGQGTMVTVSS
VL: NIRLTQSPSSLSASVGDRVTITCRATQSISSYLNWYQQKPGKAPNLLIYAASSLQSGVPSRFSGSGSGTDFTLTISSLQPEDFATYYCHQTYTSPYTFGQGTKLEIK
modifications: biotinylated when immobilised on the BLI sensor
B4 was tested, and the koff [2] was 0.00014 s⁻¹.

B5: MD17 (antibody, V domains shown)
VH: EVQLLESGGGLVQPGGSLRLSCSASGFTFSTYVMNWVRQAPGKGLEHVSGISSDGGITYYADSVKGRFTISRDNSKNTLYLQMSSLRVEDTAVYYCVKDQDSSSWYDAFDIWGQGTMVTVSS
VL: DIVMTQSPSSLSASVGDRVTITCRASQSISNYLNWYQQKLGKAPKLLTYAASRLQSGVPSRFSASGSGTEFTLTISSLQPEDFATYYCQQSYTTPLTFGGGTKLEIK
modifications: biotinylated when immobilised on the BLI sensor
Binder B5 has a Kd [1] of 2.6 nM and a koff [2] of 0.00026 s⁻¹.

B6: MD67 (antibody, V domains shown)
VH: EVQLVESGGGLVQPGGSLRLSCAASGFTVSSNYMTWVRQAPGKGLEWVSVIYSGGSTFYADSVKGRFTISRHNSKNTLYLQMNSLRAEDTAVYYCARDLSVRGGMDVWGQGTTVTVSS
VL: not shown
modifications: biotinylated when immobilised on the BLI sensor
B6 showed a koff [2] of 0.00075 s⁻¹.

B7: MD45 (antibody, V domains shown)
VH: EVQLVQSGGGLVQPGGSLRLSCAASGFTVSSNYMTWVRQAPGKGLEWVSVIYSGGSTFYADSVKGRFTISRHNSKNTLYLQMNSLRAEDTAVYYCARDLSVRGGMDVWGQGTMVTVSS
VL: EIVLTQSPGTLSLSPGERATLSCRASQSVNSSYLAWYQQKPGQAPRLLIYGASNRATGIPDRFSGSGSGTDFTLTISRLEPEDFAVYYCQQYGVSPEIIFGQGTRLEIK
modifications: biotinylated when immobilised on the BLI sensor
B7 showed a Kd [1] of 5.6 nM and a koff [2] of 0.00055 s⁻¹.

Source: article PMC7452893 (2020)
